Data on six molecules can be found in paper PMC3337327, “Crystal structures from the Plasmodium peroxiredoxins: new insights into oligomerization and product binding” (BMC Structural Biology, 2012).

For data set [1], the target named is Plasmodium knowlesi thioredoxin peroxiredoxin 1 (PkTrx-Px1), full-length His6-tagged construct (P. knowlesi H). The experiment in a line: LC-MS-TOF mass spectrometry; purified enzyme as isolated, without reducing agent; Agilent LC-MS-TOF, positive ion mode, desalted on a Poroshell 300-SB-C3 column; shows the covalent (disulfide-linked) dimer.
The target of data set [2] is Plasmodium yoelii 1-Cys peroxiredoxin of the Prx6 subfamily (PyPrx6), full-length His6-tagged construct (P. yoelii 17XNL). As to the kind of experiment: crystal structure; PyPrx6-SO2H with glycerol bound, His6-tag intact, 15 mg/mL; 23% PEG 3350, 0.1 M Bis-Tris pH 5.5, 200 mM (NH4)2SO4, 5% ethylene glycol, 20 C; 2.3 A.
Data set [3] has the same target. As to the kind of experiment: SEC; calibrated Superdex S200 gel filtration column, 10 mM HEPES pH 7.4, 500 mM NaCl; PyPrx6 eluted at 220 mL. (Size exclusion chromatography separates by hydrodynamic size, large species first.)
Data set [4] concerns the target Plasmodium yoelii thioredoxin peroxiredoxin 1 (PyTrx-Px1), full-length His6-tagged construct (P. yoelii 17XNL). The experiment in a line: LC-MS-TOF mass spectrometry; purified enzyme as isolated, without reducing agent; Agilent LC-MS-TOF, positive ion mode, desalted on a Poroshell 300-SB-C3 column; shows the covalent (disulfide-linked) dimer.
For data set [5], the target named is Plasmodium yoelii thioredoxin peroxiredoxin 1 with a 6-residue N-terminal truncation (PyTrx-Px1: Q7-L195) (P. yoelii 17XNL). Described as above.
For data set [6] the target is unchanged. The experiment in a line: crystal structure; PyTrx-Px1_ox, His6-tag intact, 4.3 mg/mL; 1.6 M ammonium sulfate, 100 mM HEPES pH 6.8, 200 mM NaAc, 20 mM NaBr, 5% ethylene glycol, 18 C; 2.3 A.
In data set [7] the target is Plasmodium vivax thioredoxin peroxiredoxin 1 (PvTrx-Px1), full-length His6-tagged construct (P. vivax Salvador I). As to the kind of experiment: LC-MS-TOF mass spectrometry; purified enzyme as isolated, without reducing agent; Agilent LC-MS-TOF, positive ion mode, desalted on a Poroshell 300-SB-C3 column; shows the covalent (disulfide-linked) dimer.
The target is the same in data set [8]. As to the kind of experiment: crystal structure; PvTrx-Px1_red, His6-tag intact, protein treated with 5 mM TCEP; 19% PEG 3350, 150 mM lithium citrate, 18 C; 2.45 A.
Data set [9] has the same target. As to the kind of experiment: crystal structure; PvTrx-Px1_ox, His6-tag intact, 8 mg/mL in 10 mM HEPES pH 7.5, 500 mM NaCl; 5% PEG 4K, NaAc pH 4.6, 18 C; 2.5 A.
Data set [10] deals with the molecule itself. As to the kind of experiment: LC-MS-TOF mass spectrometry; purified enzyme as isolated, without reducing agent; Agilent LC-MS-TOF, positive ion mode, desalted on a Poroshell 300-SB-C3 column; shows the covalent (disulfide-linked) dimer.

For “Plasmodium knowlesi thioredoxin peroxiredoxin 1 (PkTrx-Px1), full-length His6-tagged construct (enzyme)”, the stoichiometry N in data set [1] came out at 2.

As for “Plasmodium yoelii 1-Cys peroxiredoxin of the Prx6 subfamily (PyPrx6), full-length His6-tagged construct (enzyme)”, the stoichiometry N in [2] and in data set [3] was 2 each time.

As for “Plasmodium yoelii thioredoxin peroxiredoxin 1 (PyTrx-Px1), full-length His6-tagged construct (enzyme)”, the stoichiometry N in [4] was 2.

In the case of “Plasmodium yoelii thioredoxin peroxiredoxin 1 with a 6-residue N-terminal truncation (PyTrx-Px1: Q7-L195) (domain or fragment)”, the values for the stoichiometry N in data set [5] and in data set [6] were 2 and 8, respectively.

Consider “Plasmodium vivax thioredoxin peroxiredoxin 1 (PvTrx-Px1), full-length His6-tagged construct (enzyme)”, for which the stoichiometry N worked out at 2 in [7], 10 in [8] and 10 in data set [9].

B1: Plasmodium falciparum thioredoxin peroxiredoxin 1 (PfTrx-Px1), full-length His6-tagged construct (enzyme, P. falciparum 3D7, UniProt Q8IL80 1-195, looked up)
chain: MASYVGREAPYFKAEAVFADNTFGEVNLHDFIGKKYVLLYFYPLDFTFVCPSEIIALDKALDAFKERNVELIGCSVDSKYTHLAWKKTPLTKGGIGNIQHTLISDITKSISRSYNVLFGDSVSLRAFVLIDKQGVVQHLLVNNLAIGRSVEEVLRIIDAVQHHEQHGDVCPANWKKGKVAMKPSEEGVSEYLSKL
modifications: intermolecular disulfide between the peroxidatic and resolving cysteines (C50, C170) in the enzyme as purified
notes: thioredoxin peroxiredoxin 1 (Trx-Px1, 2-Cys Prx, Prx1 subfamily), P. falciparum 3D7, PlasmoDB PF14_0368, full length; N-terminal Met of the tag is clipped in E. coli; also called Trx-Px1 from P. falciparum
In the case of B1, in [10], the “stoichiometry N” value stood at 2.

For orientation: stoichiometry N means the number of molecules, sites or subunits per partner or assembly.
